Assay results published in patent publication US12099068B2, “Biomarkers for graft-versus-host disease” (Incyte Corporation, priority 2018, dated 2024).

B1: SERPINA9 (protein, UniProt Q86WD7 24-417, looked up)
Serpin A9: ANAPSAYPRPSSTKSTPASQVYSLNTDFAFRLYRRLVLETPSQNIFFSPVSVSTSLAMLSLGAHSVTKTQILQGLGFNLTHTPESAIHQGFQHLVHSLTVPSKDLTLKMGSALFVKKELQLQANFLGNVKRLYEAEVFSTDFSNPSIAQARINSHVKKKTQGKVVDIIQGLDLLTAMVLVNHIFFKAKWEKPFHPEYTRKNFPFLVGEQVTVHVPMMHQKEQFAFGVDTELNCFVLQMDYKGDAVAFFVLPSKGKMRQLEQALSARTLRKWSHSLQKRWIEVFIPRFSISASYNLETILPKMGIQNVFDKNADFSGIAKRDSLQVSKATHKAVLDVSEEGTEATAATTTKFIVRSKDGPSYFTVSFNRTFLMMITNKATDGILFLGKVENPTKS
B2: THY 1 (protein, UniProt P04216 20-130, looked up)
Thy-1 membrane glycoprotein: QKVTSLTACLVDQSLRLDCRHENTSSSPIQYEFSLTRETKKHVLFGTVGVPEHTYRSRTNFTSKYNMKVLYLSAFTSKDEGTYTCALHHSGHSPPISSQNVTVLRDKLVKC
B3: HCLS1 (protein, UniProt P14317 1-486, looked up)
Hematopoietic lineage …: MWKSVVGHDVSVSVETQGDDWDTDPDFVNDISEKEQRWGAKTIEGSGRTEHINIHQLRNKVSEEHDVLRKKEMESGPKASHGYGGRFGVERDRMDKSAVGHEYVAEVEKHSSQTDAAKGFGGKYGVERDRADKSAVGFDYKGEVEKHTSQKDYSRGFGGRYGVEKDKWDKAALGYDYKGETEKHESQRDYAKGFGGQYGIQKDRVDKSAVGFNEMEAPTTAYKKTTPIEAASSGTRGLKAKFESMAEEKRKREEEEKAQQVARRQQERKAVTKRSPEAPQPVIAMEEPAVPAPLPKKISSEAWPPVGTPPSSESEPVRTSREHPVPLLPIRQTLPEDNEEPPALPPRTLEGLQVEEEPVYEAEPEPEPEPEPEPENDYEDVEEMDRHEQEDEPEGDYEEVLEPEDSSFSSALAGSSGCPAGAGAGAVALGISAVAVYDYQGEGSDELSFDPDDVITDIEMVDEGWWRGRCHGHFGLFPANYVKLLE
B4: PRKRA (protein, UniProt O75569 1-313, looked up)
Interferon-inducible …: MSQSRHRAEAPPLEREDSGTFSLGKMITAKPGKTPIQVLHEYGMKTKNIPVYECERSDVQIHVPTFTFRVTVGDITCTGEGTSKKLAKHRAAEAAINILKANASICFAVPDPLMPDPSKQPKNQLNPIGSLQELAIHHGWRLPEYTLSQEGGPAHKREYTTICRLESFMETGKGASKKQAKRNAAEKFLAKFSNISPENHISLTNVVGHSLGCTWHSLRNSPGEKINLLKRSLLSIPNTDYIQLLSEIAKEQGFNITYLDIDELSANGQYQCLAELSTSPITVCHGSGISCGNAQSDAAHNALQYLKIIAERK
B5: ICAM3 (protein, UniProt P32942 30-547, looked up)
Intercellular adhesion …: QEFLLRVEPQNPVLSAGGSLFVNCSTDCPSSEKIALETSLSKELVASGMGWAAFNLSNVTGNSRILCSVYCNGSQITGSSNITVYRLPERVELAPLPPWQPVGQNFTLRCQVEDGSPRTSLTVVLLRWEEELSRQPAVEEPAEVTATVLASRDDHGAPFSCRTELDMQPQGLGLFVNTSAPRQLRTFVLPVTPPRLVAPRFLEVETSWPVDCTLDGLFPASEAQVYLALGDQMLNATVMNHGDTLTATATATARADQEGAREIVCNVTLGGERREARENLTVFSFLGPIVNLSEPTAHEGSTVTVSCMAGARVQVTLDGVPAAAPGQPAQLQLNATESDDGRSFFCSATLEVDGEFLHRNSSVQLRVLYGPKIDRATCPQHLKWKDKTRHVLQCQARGNPYPELRCLKEGSSREVPVGIPFFVNVTHNGTYQCQASSSRGKYTLVVVMDIEAGSSHFVPVFVAVLLTLGVVTIVLALMYVFREHQRSGSYHVREESTYLPLTSMQPTEAMGEEPSRAE
B6: CD48 (protein, UniProt P09326 27-220, looked up)
CD48 antigen: QGHLVHMTVVSGSNVTLNISESLPENYKQLTWFYTFDQKIVEWDSRKSKYFESKFKGRVRLDPQSGALYISKVQKEDNSTYIMRVLKKTGNEQEWKIKLQVLDPVPKPVIKIEKIEDMDDNCYLKLSCVIPGESVNYTWYGDKRPFPKELQNSVLETTLMPHNYSRCYTCQVSNSVSSKNGTVCLSPPCTLARS
B7: MPO (protein, UniProt P05164 165-745, looked up)
Myeloperoxidase: VTCPEQDKYRTITGMCNNRRSPTLGASNRAFVRWLPAEYEDGFSLPYGWTPGVKRNGFPVALARAVSNEIVRFPTDQLTPDQERSLMFMQWGQLLDHDLDFTPEPAARASFVTGVNCETSCVQQPPCFPLKIPPNDPRIKNQADCIPFFRSCPACPGSNITIRNQINALTSFVDASMVYGSEEPLARNLRNMSNQLGLLAVNQRFQDNGRALLPFDNLHDDPCLLTNRSARIPCFLAGDTRSSEMPELTSMHTLLLREHNRLATELKSLNPRWDGERLYQEARKIVGAMVQIITYRDYLPLVLGPTAMRKYLPTYRSYNDSVDPRIANVFTNAFRYGHTLIQPFMFRLDNRYQPMEPNPRVPLSRVFFASWRVVLEGGIDPILRGLMATPAKLNRQNQIAVDEIRERLFEQVMRIGLDLPALNMQRSRDHGLPGYNAWRRFCGLPQPETVGQLGTVLRNLKLARKLMEQYGTPNNIDIWMGGVSEPLKRKGRVGPLLACIIGTQFRKLRDGDRFWWENEGVFSMQQRQALAQISLPRIICDNTGITTVSKNNIFMSNSYPRDFVNCSTLPALNLASWREAS
B8: KAZALD1 (protein, UniProt Q96I82 31-304, looked up)
Kazal-type serine protease …: RPSPGPDYLRRGWMRLLAEGEGCAPCRPEECAAPRGCLAGRVRDACGCCWECANLEGQLCDLDPSAHFYGHCGEQLECRLDTGGDLSRGEVPEPLCACRSQSPLCGSDGHTYSQICRLQEAARARPDANLTVAHPGPCESGPQIVSHPYDTWNVTGQDVIFGCEVFAYPMASIEWRKDGLDIQLPGDDPHISVQFRGGPQRFEVTGWLQIQAVRPSDEGTYRCLGRNALGQVEAPASLTVLTPDQLNSTGIPQLRSLNLVPEEEAESEENDDYY
B9: SIT1 (protein, UniProt Q9Y3P8 25-196, looked up)
Signaling …: DNCTDLLALGIPSITQAWGLWVLLGAVTLLFLISLAAHLSQWTRGRSRSHPGQGRSGESVEEVPLYGNLHYLQTGRLSQDPEPDQQDPTLGGPARAAEEVMCYTSLQLRPPQGRIPGPGTPVKYSEVVLDSEPKSQASGPEPELYASVCAQTRRARASFPDQAYANSQPAAS
B10: PODXL (protein, UniProt O00592 23-558, looked up)
Podocalyxin: SPSPSPSPSQNATQTTTDSSNKTAPTPASSVTIMATDTAQQSTVPTSKANEILASVKATTLGVSSDSPGTTTLAQQVSGPVNTTVARGGGSGNPTTTIESPKSTKSADTTTVATSTATAKPNTTSSQNGAEDTTNSGGKSSHSVTTDLTSTKAEHLTTPHPTSPLSPRQPTSTHPVATPTSSGHDHLMKISSSSSTVAIPGYTFTSPGMTTTLLETVFHHVSQAGLELLTSGDLPTLASQSAGITASSVISQRTQQTSSQMPASSTAPSSQETVQPTSPATALRTPTLPETMSSSPTAASTTHRYPKTPSPTVAHESNWAKCEDLETQTQSEKQLVLNLTGNTLCAGGASDEKLISLICRAVKATFNPAQDKCGIRLASVPGSQTVVVKEITIHTKLPAKDVYERLKDKWDELKEAGVSDMKLGDQGPPEEAEDRFSMPLIITIVCMASFLLLVAALYGCCHQRLSQRKDQQRLTEELQTVENGYHDNPTLEVMETSSEMQEKKVVSLNGELGDSWIVPLDNLTKDDLDEEEDTHL
B11: ITGB1BP2 (protein, UniProt Q9UKP3 1-347, looked up)
Integrin beta-1-binding …: MSLLCRNKGCGQHFDPNTNLPDSCCHHPGVPIFHDALKGWSCCRKRTVDFSEFLNIKGCTMGPHCAEKLPEAPQPEGPATSSSLQEQKPLNVIPKSAETLRRERPKSELPLKLLPLNISQALEMALEQKELDQEPGAGLDSLIRTGSSCQNPGCDAVYQGPESDATPCTYHPGAPRFHEGMKSWSCCGIQTLDFGAFLAQPGCRVGRHDWGKQLPASCRHDWHQTDSLVVVTVYGQIPLPAFNWVKASQTELHVHIVFDGNRVFQAQMKLWGVINVEQSSVFLMPSRVEISLVKADPGSWAQLEHPDALAKKARAGVVLEMDEEESDDSDDDLSWTEEEEEEEAMGE
B12: SERPINA12 (protein, UniProt Q8IW75 21-414, looked up)
Serpin A12: LKPSFSPRNYKALSEVQGWKQRMAAKELARQNMDLGFKLLKKLAFYNPGRNIFLSPLSISTAFSMLCLGAQDSTLDEIKQGFNFRKMPEKDLHEGFHYIIHELTQKTQDLKLSIGNTLFIDQRLQPQRKFLEDAKNFYSAETILTNFQNLEMAQKQINDFISQKTHGKINNLIENIDPGTVMLLANYIFFRARWKHEFDPNVTKEEDFFLEKNSSVKVPMMFRSGIYQVGYDDKLSCTILEIPYQKNITAIFILPDEGKLKHLEKGLQVDTFSRWKTLLSRRVVDVSVPRLHMTGTFDLKKTLSYIGVSKIFEEHGDLTKIAPHRSLKVGEAVHKAELKMDERGTEGAAGTGAQTLPMETPLVVKIDKPYLLLIYSEKIPSVLFLGKIVNPIGK
B13: ANGPTL3 (protein, UniProt Q9Y5C1 17-460, looked up)
Angiopoietin-related protein 3: SRIDQDNSSFDSLSPEPKSRFAMLDDVKILANGLLQLGHGLKDFVHKTKGQINDIFQKLNIFDQSFYDLSLQTSEIKEEEKELRRTTYKLQVKNEEVKNMSLELNSKLESLLEEKILLQQKVKYLEEQLTNLIQNQPETPEHPEVTSLKTFVEKQDNSIKDLLQTVEDQYKQLNQQHSQIKEIENQLRRTSIQEPTEISLSSKPRAPRTTPFLQLNEIRNVKHDGIPAECTTIYNRGEHTSGMYAIRPSNSQVFHVYCDVISGSPWTLIQHRIDGSQNFNETWENYKYGFGRLDGEFWLGLEKIYSIVKQSNYVLRIELEDWKDNKHYIEYSFYLGNHETNYTLHLVAITGNVPNAIPENKDLVFSTWDHKAKGHFNCPEGYSGGWWWHDECGENNLNGKYNKPRAKSKPERRRGLSWKSQNGRLYSIKSTKMLIHPTDSESFE
B14: CD244 (protein, UniProt Q9BZW8 22-370, looked up)
Natural killer cell receptor …: CQGSADHVVSISGVPLQLQPNSIQTKVDSIAWKKLLPSQNGFHHILKWENGSLPSNTSNDRFSFIVKNLSLLIKAAQQQDSGLYCLEVTSISGKVQTATFQVFVFESLLPDKVEKPRLQGQGKILDRGRCQVALSCLVSRDGNVSYAWYRGSKLIQTAGNLTYLDEEVDINGTHTYTCNVSNPVSWESHTLNLTQDCQNAHQEFRFWPFLVIIVILSALFLGTLACFCVWRRKRKEKQSETSPKEFLTIYEDVKDLKTRRNHEQEQTFPGGGSTIYSMIQSQSSAPTSQEPAYTLYSLIQPSRKSGSRKRNHSPSFNSTIYEVIGKSQPKAQNPARLSRKELENFDVYS

tested on: plasma proteins; assay: Plasma proteins modulated between baseline and day 28 in responders (CR, VGPR, PR; n = 19), Example 6 (Table 13); type: in vivo, human; conditions: plasma protein (OLINK NPX); responders (CR, VGPR, PR; n = 19); itacitinib 200 mg or 300 mg QD with corticosteroids; day 28 vs baseline
How it was run: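 Plasma at baseline/screening and day 28 profiled for >1000 proteins by OLINK proximity extension assay, reported as NPX (log2). Steroid-naive and steroid-refractory patients pooled. Paired and unpaired t tests, ANOVA and Pearson correlation applied; significance at P<0.05.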

Molecule	Fold Change, Increased Expression from Baseline to Day 28	Fold Change, Decreased Expression from Baseline to Day 28
B1	1.5418	–
B2	–	−1.2913
B3	–	−1.455
B4	–	−1.2761
B5	–	−1.464
B6	–	−1.6022
B7	–	−1.8431
B8	1.2609	–
B9	–	−1.5501
B10	1.2014	–
B11	–	−1.8787
B12	1.567	–
B13	1.2673	–
B14	–	−1.5176
